# Measured values: paper PMC8445900
# pKd: −log10 of the molar value.
# Molecular target: SARS-CoV-2 spike protein receptor-binding domain, wildtype (SARS-CoV-2) (UniProt P0DTC2)
# Experiment: ITC
substance,measurement,value
CC12.1 single-chain fragment variable (scFv),pKd,7.55
same,dH,-4.8 kcal/mol
